According to patent US20110064668A1:

What was measured:
Kv1.6 channel = assay: cell-based or functional assay
[1] = biological target: α3β4 subtype of rat neuronal nAChR (rat), P04757; assay: cell-based or functional assay
Sequence of α3β4 subtype of rat neuronal nAChR (rat), P04757 (P04757 26-499, chain 1 of 2): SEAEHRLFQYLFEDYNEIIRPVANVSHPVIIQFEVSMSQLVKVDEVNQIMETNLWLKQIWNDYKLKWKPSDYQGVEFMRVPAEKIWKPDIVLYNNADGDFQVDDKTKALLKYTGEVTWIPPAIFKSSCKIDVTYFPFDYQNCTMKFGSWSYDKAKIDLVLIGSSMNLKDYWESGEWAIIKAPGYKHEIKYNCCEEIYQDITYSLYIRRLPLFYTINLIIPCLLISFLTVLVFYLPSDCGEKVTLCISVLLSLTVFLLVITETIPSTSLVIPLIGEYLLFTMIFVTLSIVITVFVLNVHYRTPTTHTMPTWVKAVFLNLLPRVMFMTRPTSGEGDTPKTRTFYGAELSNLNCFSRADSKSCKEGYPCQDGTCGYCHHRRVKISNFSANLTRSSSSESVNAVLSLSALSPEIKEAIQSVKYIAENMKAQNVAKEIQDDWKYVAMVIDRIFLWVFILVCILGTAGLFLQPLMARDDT
Sequence of α3β4 subtype of rat neuronal nAChR (rat), P04757 (P12392 21-495, chain 2 of 2, further chain): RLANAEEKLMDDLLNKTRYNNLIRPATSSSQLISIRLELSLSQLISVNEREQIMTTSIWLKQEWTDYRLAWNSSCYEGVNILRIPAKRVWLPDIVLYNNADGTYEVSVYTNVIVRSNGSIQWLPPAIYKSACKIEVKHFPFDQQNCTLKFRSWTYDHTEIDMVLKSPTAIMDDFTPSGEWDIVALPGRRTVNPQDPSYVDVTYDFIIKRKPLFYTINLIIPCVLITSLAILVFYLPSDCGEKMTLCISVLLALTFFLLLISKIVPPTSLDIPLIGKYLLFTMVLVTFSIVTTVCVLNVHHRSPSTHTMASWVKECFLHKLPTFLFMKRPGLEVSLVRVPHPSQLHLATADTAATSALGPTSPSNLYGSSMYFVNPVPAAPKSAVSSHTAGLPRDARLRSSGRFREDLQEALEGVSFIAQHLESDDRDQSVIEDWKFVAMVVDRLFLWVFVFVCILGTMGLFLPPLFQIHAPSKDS

FPRPRICNLACRAGIGHKYPFCHCR (modifications not checked) [conotoxin pl14a]
IC50, µM (vitelline membrane retained) (Kv1.6 channel): 3.12 µM
IC50 for the block of Kv1.6 currents (vitelline membrane removed) (Kv1.6 channel): 1.59 µM
IC50 in α3β4 (nM), block of ACh-elicited current in oocytes [1]: 8700 nM
